Earlier results, collected in publication PMC6829319.

Biological target: CdiA toxin (Escherichia coli) (UniProt Q0T963)
Sequence (Q0T963 3016-3242): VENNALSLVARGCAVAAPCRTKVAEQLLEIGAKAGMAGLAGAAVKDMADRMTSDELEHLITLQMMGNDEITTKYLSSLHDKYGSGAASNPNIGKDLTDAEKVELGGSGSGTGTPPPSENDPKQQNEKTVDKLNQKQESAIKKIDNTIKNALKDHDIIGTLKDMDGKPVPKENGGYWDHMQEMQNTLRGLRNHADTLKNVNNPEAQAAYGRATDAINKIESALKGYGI

Chain of CysK (P0ABK5 2-323): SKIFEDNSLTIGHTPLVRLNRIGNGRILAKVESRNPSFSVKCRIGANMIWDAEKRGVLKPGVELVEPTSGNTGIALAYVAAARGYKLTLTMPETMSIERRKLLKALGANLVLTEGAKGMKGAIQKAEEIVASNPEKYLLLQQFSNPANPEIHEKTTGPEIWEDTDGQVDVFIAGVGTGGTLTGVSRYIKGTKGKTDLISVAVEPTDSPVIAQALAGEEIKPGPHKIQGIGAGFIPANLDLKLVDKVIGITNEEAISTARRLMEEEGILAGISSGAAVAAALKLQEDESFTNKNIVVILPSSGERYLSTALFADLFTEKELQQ

For CysK (from UniProt P0ABK5), the Kd is given as 5 nM.
